Measured values reported in US20220064312A1.

target: human CCR8 (human) (UniProt P51685); experiment: cell-based or functional assay
Sequence (P51685 whole entry): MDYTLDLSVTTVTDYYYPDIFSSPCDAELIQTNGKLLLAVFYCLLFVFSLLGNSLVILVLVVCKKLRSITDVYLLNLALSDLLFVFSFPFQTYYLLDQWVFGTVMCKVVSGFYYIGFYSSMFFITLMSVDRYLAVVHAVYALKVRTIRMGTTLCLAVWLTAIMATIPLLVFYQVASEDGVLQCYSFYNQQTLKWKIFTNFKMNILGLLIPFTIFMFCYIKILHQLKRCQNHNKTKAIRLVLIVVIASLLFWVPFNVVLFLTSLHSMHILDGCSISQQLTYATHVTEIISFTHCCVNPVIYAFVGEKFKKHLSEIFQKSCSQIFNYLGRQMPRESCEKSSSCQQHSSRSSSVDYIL

| Binder | IC50 ratio (WT IC50/mutant IC50) | IC50 (n.d.: 10 nM or more) [nM] |
| --- | --- | --- |
| h10A11 IGKV4-1/IGHV3-73 K64R (antibody, name in Kabat numbering, V domains shown) VH: EVQLVESGGGLVQPGGSLKLSCAASGFAFNTYALYWVRQASGKGLEWVGRIRSKSNNYATYYADSVRDRFTISRDDSKNTAYLQMNSLKTEDTAVYYCTRARFYYSDYGYAMDYWGQGTLVTVSS VL: DIVMTQSPDSLAVSLGERATINCRSSKSLLHSNGNTYLYWYQQKPGQPPKLLIYRMSNLASGVPDRFSGSGSGTDFTLTISSLQAEDVAVYYCMQHLEYPLTFGQGTKLEIKR | 0.54 |  |
| h10A11 IGKV4-1/IGHV3-73 Y99F (antibody, name in Kabat numbering, V domains shown) VH: EVQLVESGGGLVQPGGSLKLSCAASGFAFNTYALYWVRQASGKGLEWVGRIRSKSNNYATYYADSVKDRFTISRDDSKNTAYLQMNSLKTEDTAVYYCTRARFYFSDYGYAMDYWGQGTLVTVSS VL: DIVMTQSPDSLAVSLGERATINCRSSKSLLHSNGNTYLYWYQQKPGQPPKLLIYRMSNLASGVPDRFSGSGSGTDFTLTISSLQAEDVAVYYCMQHLEYPLTFGQGTKLEIKR | 0.8 |  |
| h10A11 IGKV4-1/IGHV3-73 G100cA (antibody, name in Kabat numbering, V domains shown) VH: EVQLVESGGGLVQPGGSLKLSCAASGFAFNTYALYWVRQASGKGLEWVGRIRSKSNNYATYYADSVKDRFTISRDDSKNTAYLQMNSLKTEDTAVYYCTRARFYYSDYAYAMDYWGQGTLVTVSS VL: DIVMTQSPDSLAVSLGERATINCRSSKSLLHSNGNTYLYWYQQKPGQPPKLLIYRMSNLASGVPDRFSGSGSGTDFTLTISSLQAEDVAVYYCMQHLEYPLTFGQGTKLEIKR | 0.07 |  |
| h10A11 IGKV4-1/IGHV3-73 A100eV (antibody, name in Kabat numbering, V domains shown) VH: EVQLVESGGGLVQPGGSLKLSCAASGFAFNTYALYWVRQASGKGLEWVGRIRSKSNNYATYYADSVKDRFTISRDDSKNTAYLQMNSLKTEDTAVYYCTRARFYYSDYGYVMDYWGQGTLVTVSS VL: DIVMTQSPDSLAVSLGERATINCRSSKSLLHSNGNTYLYWYQQKPGQPPKLLIYRMSNLASGVPDRFSGSGSGTDFTLTISSLQAEDVAVYYCMQHLEYPLTFGQGTKLEIKR | 0.49 |  |
| h10A11 IGKV4-1/IGHV3-73 D65E (antibody, name in Kabat numbering, V domains shown) VH: EVQLVESGGGLVQPGGSLKLSCAASGFAFNTYALYWVRQASGKGLEWVGRIRSKSNNYATYYADSVKERFTISRDDSKNTAYLQMNSLKTEDTAVYYCTRARFYYSDYGYAMDYWGQGTLVTVSS VL: DIVMTQSPDSLAVSLGERATINCRSSKSLLHSNGNTYLYWYQQKPGQPPKLLIYRMSNLASGVPDRFSGSGSGTDFTLTISSLQAEDVAVYYCMQHLEYPLTFGQGTKLEIKR | 1.3 |  |
| h10A11 IGKV4-1/IGHV3-73 R96K (antibody, name in Kabat numbering, V domains shown) VH: EVQLVESGGGLVQPGGSLKLSCAASGFAFNTYALYWVRQASGKGLEWVGRIRSKSNNYATYYADSVKDRFTISRDDSKNTAYLQMNSLKTEDTAVYYCTRAKFYYSDYGYAMDYWGQGTLVTVSS VL: DIVMTQSPDSLAVSLGERATINCRSSKSLLHSNGNTYLYWYQQKPGQPPKLLIYRMSNLASGVPDRFSGSGSGTDFTLTISSLQAEDVAVYYCMQHLEYPLTFGQGTKLEIKR |  | > 10 |
| h10A11 IGKV4-1/IGHV3-73 Y102F (antibody, name in Kabat numbering, V domains shown) VH: EVQLVESGGGLVQPGGSLKLSCAASGFAFNTYALYWVRQASGKGLEWVGRIRSKSNNYATYYADSVKDRFTISRDDSKNTAYLQMNSLKTEDTAVYYCTRARFYYSDYGYAMDFWGQGTLVTVSS VL: DIVMTQSPDSLAVSLGERATINCRSSKSLLHSNGNTYLYWYQQKPGQPPKLLIYRMSNLASGVPDRFSGSGSGTDFTLTISSLQAEDVAVYYCMQHLEYPLTFGQGTKLEIKR | 0.99 |  |
| h10A11 IGKV4-1/IGHV3-73 F97L (antibody, name in Kabat numbering, V domains shown) VH: EVQLVESGGGLVQPGGSLKLSCAASGFAFNTYALYWVRQASGKGLEWVGRIRSKSNNYATYYADSVKDRFTISRDDSKNTAYLQMNSLKTEDTAVYYCTRARLYYSDYGYAMDYWGQGTLVTVSS VL: DIVMTQSPDSLAVSLGERATINCRSSKSLLHSNGNTYLYWYQQKPGQPPKLLIYRMSNLASGVPDRFSGSGSGTDFTLTISSLQAEDVAVYYCMQHLEYPLTFGQGTKLEIKR |  | > 10 |
| h10A11 IGKV4-1/IGHV3-73 S100T (antibody, name in Kabat numbering, V domains shown) VH: EVQLVESGGGLVQPGGSLKLSCAASGFAFNTYALYWVRQASGKGLEWVGRIRSKSNNYATYYADSVKDRFTISRDDSKNTAYLQMNSLKTEDTAVYYCTRARFYYTDYGYAMDYWGQGTLVTVSS VL: DIVMTQSPDSLAVSLGERATINCRSSKSLLHSNGNTYLYWYQQKPGQPPKLLIYRMSNLASGVPDRFSGSGSGTDFTLTISSLQAEDVAVYYCMQHLEYPLTFGQGTKLEIKR | 0.64 |  |
| h10A11 IGKV4-1/IGHV3-73 Y98F (antibody, name in Kabat numbering, V domains shown) VH: EVQLVESGGGLVQPGGSLKLSCAASGFAFNTYALYWVRQASGKGLEWVGRIRSKSNNYATYYADSVKDRFTISRDDSKNTAYLQMNSLKTEDTAVYYCTRARFFYSDYGYAMDYWGQGTLVTVSS VL: DIVMTQSPDSLAVSLGERATINCRSSKSLLHSNGNTYLYWYQQKPGQPPKLLIYRMSNLASGVPDRFSGSGSGTDFTLTISSLQAEDVAVYYCMQHLEYPLTFGQGTKLEIKR | 0.07 |  |
| h10A11 IGKV4-1/IGHV3-73 D101E (antibody, name in Kabat numbering, V domains shown) VH: EVQLVESGGGLVQPGGSLKLSCAASGFAFNTYALYWVRQASGKGLEWVGRIRSKSNNYATYYADSVKDRFTISRDDSKNTAYLQMNSLKTEDTAVYYCTRARFYYSDYGYAMEYWGQGTLVTVSS VL: DIVMTQSPDSLAVSLGERATINCRSSKSLLHSNGNTYLYWYQQKPGQPPKLLIYRMSNLASGVPDRFSGSGSGTDFTLTISSLQAEDVAVYYCMQHLEYPLTFGQGTKLEIKR |  | > 10 |
| h10A11 IGKV4-1/IGHV3-73 Y100dF (antibody, name in Kabat numbering, V domains shown) VH: EVQLVESGGGLVQPGGSLKLSCAASGFAFNTYALYWVRQASGKGLEWVGRIRSKSNNYATYYADSVKDRFTISRDDSKNTAYLQMNSLKTEDTAVYYCTRARFYYSDYGFAMDYWGQGTLVTVSS VL: DIVMTQSPDSLAVSLGERATINCRSSKSLLHSNGNTYLYWYQQKPGQPPKLLIYRMSNLASGVPDRFSGSGSGTDFTLTISSLQAEDVAVYYCMQHLEYPLTFGQGTKLEIKR | 0.55 |  |
| h10A11 IGKV4-1/IGHV3-73 D100aE (antibody, name in Kabat numbering, V domains shown) VH: EVQLVESGGGLVQPGGSLKLSCAASGFAFNTYALYWVRQASGKGLEWVGRIRSKSNNYATYYADSVKDRFTISRDDSKNTAYLQMNSLKTEDTAVYYCTRARFYYSEYGYAMDYWGQGTLVTVSS VL: DIVMTQSPDSLAVSLGERATINCRSSKSLLHSNGNTYLYWYQQKPGQPPKLLIYRMSNLASGVPDRFSGSGSGTDFTLTISSLQAEDVAVYYCMQHLEYPLTFGQGTKLEIKR | 0.3 |  |
| h10A11 IGKV4-1/IGHV3-73 Y100bF (antibody, name in Kabat numbering, V domains shown) VH: EVQLVESGGGLVQPGGSLKLSCAASGFAFNTYALYWVRQASGKGLEWVGRIRSKSNNYATYYADSVKDRFTISRDDSKNTAYLQMNSLKTEDTAVYYCTRARFYYSDFGYAMDYWGQGTLVTVSS VL: DIVMTQSPDSLAVSLGERATINCRSSKSLLHSNGNTYLYWYQQKPGQPPKLLIYRMSNLASGVPDRFSGSGSGTDFTLTISSLQAEDVAVYYCMQHLEYPLTFGQGTKLEIKR | 0.75 |  |
| h10A11 IGKV4-1/IGHV3-73 M100fL (antibody, name in Kabat numbering, V domains shown) VH: EVQLVESGGGLVQPGGSLKLSCAASGFAFNTYALYWVRQASGKGLEWVGRIRSKSNNYATYYADSVKDRFTISRDDSKNTAYLQMNSLKTEDTAVYYCTRARFYYSDYGYALDYWGQGTLVTVSS VL: DIVMTQSPDSLAVSLGERATINCRSSKSLLHSNGNTYLYWYQQKPGQPPKLLIYRMSNLASGVPDRFSGSGSGTDFTLTISSLQAEDVAVYYCMQHLEYPLTFGQGTKLEIKR | 0.72 |  |
